Measurements reported in paper PMC5792032.

Key:
[1] = target: GST control protein; assay: GST pulldown, Western blot quantification (Li-Cor Odyssey Sa); conditions: parent: est. 0.78; read off a plot
[2] = target: NS5A domain I (35-215) V67A; assay: as above; conditions: parent: est. 7.4; read off a plot
[3] = target: NS5A domain I (35-215) P145A; assay: as above; conditions: parent: est. 7.4; read off a plot
[4] = test system: NS5A domain I WT (Hepatitis C virus JFH-1 (genotype 2a)); assay: filter binding; conditions: Binding buffer and temperature not given (as in ref 32); slot blot nitrocellulose/nylon, hyperbolic fit; protein dialyzed in 20 mM Tris-HCl pH 8.2, 150 mM …
[5] = target: NS5A domain I (35-215) P35A; assay: GST pulldown, Western blot quantification (Li-Cor Odyssey Sa); conditions: parent: est. 7.4; read off a plot

Substance	response [1]	response [2]	response [3]	Kd [4] [nM]	response [5]
NS5A domain I (35-215), wild type V67A	0.15	0.39			
NS5A domain I (35-215), wild type P145A	0.34		1.3		
HCV 3'UTR RNA				246	
NS5A domain I (35-215), wild type P35A	0.34				2.5
